Test results as given in paper PMC13384500, “RNA selectively modulates activity of virulent amyloid PSMα3 and host-defense LL-37 via phase separation and aggregation dynamics”.

T1: PSMα3 (Staphylococcus aureus, UniProt P0C805)
T1 chain: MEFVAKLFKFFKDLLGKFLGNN

B1: Poly(A) RNA (30-nt oligoA) (ssRNA)
RNA: AAAAAAAAAAAAAAAAAAAAAAAAAAAAAA
B2: Poly(AU) RNA (30-nt oligoA/oligoU) (dsRNA)
RNA 1: B1 RNA
RNA 2: UUUUUUUUUUUUUUUUUUUUUUUUUUUUUU

What was measured:
PSMα3 [1] = target: T1, PSMα3; test: EMSA; apparent Kd, Hill fit with n > 1; 40 nM RNA; weaker than Poly(AU); settings: tags: none (unlabeled)
PSMα3 [2] = target: T1, PSMα3; test: EMSA; apparent Kd, Hill fit with n > 1; 40 nM RNA; settings: tags: none (unlabeled)

Row | Binder | Kd (PSMα3 [1]) | Kd (PSMα3 [2])
1 | B1 | 94.5 ± 5.4 µM | –
2 | B2 | – | 61.8 ± 1.6 µM
